Consider 28 variants from the supplement of paper PMC11811203.

To fix the notation:
B1: THAP1; numbered along this chain (parent)
chain: MVQSCSAYGCKNRYDKDKPVSFHKFPLTRPSLCKEWEAAVRRKNFKPTKYSSICSEHFTPDCFKRECNNKLLKENAVPTIFLCTEPHDKKEDLLEPQEQLPPPPLPPPVSQVDAAIGLLMPPLQTPVNLSVFCDHNYTVEDTMHQRKRIHQLEQQVEKLRKKLKTAQQRCRRQERQLEKLKEVVHFQKEKDDVSERGYVILPNDYFEIVEVPA

The variants in this series derive from B1. Briefly: THAP1 transcriptional activity (GFP+/GFP- enrichment relative to wild-type constructs) (ratio to WT); higher = more THAP1 activity (PSMB5 reporter activation). Particulars: with PSMB5 promoter-GFP reporter. How it is done:
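Deep mutational scan of human THAP1. Site-saturation single amino acid variant library (residues 2-213) was expressed by lentivirus at MOI ~0.3 in THAP1-knockout HEK-293T cells carrying an endogenous PSMB5 promoter-GFP knock-in reporter. Five days post-transduction, BFP+ cells were FACS-sorted into GFP dim and GFP bright populations and variants were counted by Illumina sequencing. Activity is the GFP-bright/GFP-dim read fold change, mean of 2 replicates, divided by the mean fold change of wild-type (synonymous) constructs in the same screen pool; WT = 1.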
Take MVQSCSAYGCKNRYDKDKPVSFHKFPLTRPSLCKEWEAAVRRKNFKPTKYSSICSEHFTPDCFKRECNNKLLKENAVPTIFLCTEPHDKKEDLLEPQEHLPPPPLPPPVSQVDAAIGLLMPPLQTPVNLSVFCDHNYTVEDTMHQRKRIHQLEQQVEKLRKKLKTAQQRCRRQERQLEKLKEVVHFQKEKDDVSERGYVILPNDYFEIVEVPA [Q99H]: the THAP1 transcriptional activity is 1.07.
To MVQSCSAYGCKNRYDKDKPVSFHKFPLTRPSLCKEWEAAVRRKNFKPTKYSSICSEHFTPDCFKRECNNKLLKENAVPTIFLCTEPHDKKEDLLEPQEQLPPPPLPPPVSQVDALIGLLMPPLQTPVNLSVFCDHNYTVEDTMHQRKRIHQLEQQVEKLRKKLKTAQQRCRRQERQLEKLKEVVHFQKEKDDVSERGYVILPNDYFEIVEVPA [A115L] belongs 0.295; to MVQSCSAYGCKNRYDKDKPVSFHKFPLTRPSLCKEWEAAVRRKNFKPTKYSSICSEHFTPDCFKRECNNKLLKENAVPTIFLCTEPHDKKEDLLEPQEQLPPPPLPPPVSQVDAAIGLLMPPLQTPVNLSVFCDHNYTVEDTMHQRKRIHQLEQQVEKLRKKLKTAQQRCRRQERQLEKLKDVVHFQKEKDDVSERGYVILPNDYFEIVEVPA [E182D], 1.34.
To MVQSCSAYGCKNRYDKDKPVSFHKFPLTRPSLCKEWEAAVRRKNFKPTKYSSICSEHFTPDCFKRECNNKLLKENAVPTIFLCTEPHDKKEDLLEPQEQLPPPPLPPPVSQVDAAIGLLMPPLQTPVNLSVFCDHNYTVEDTMHQRKRIHQLEQQVEKLRKKLKTAQQRCRRQERCLEKLKEVVHFQKEKDDVSERGYVILPNDYFEIVEVPA [Q176C] belongs 0.538; to MVQSNSAYGCKNRYDKDKPVSFHKFPLTRPSLCKEWEAAVRRKNFKPTKYSSICSEHFTPDCFKRECNNKLLKENAVPTIFLCTEPHDKKEDLLEPQEQLPPPPLPPPVSQVDAAIGLLMPPLQTPVNLSVFCDHNYTVEDTMHQRKRIHQLEQQVEKLRKKLKTAQQRCRRQERQLEKLKEVVHFQKEKDDVSERGYVILPNDYFEIVEVPA [C5N], 0.208; to MVQSCSAYGCKNRYDKDKPVSFHKFPLTRPSLCKEWEAAVRRKNFKPTKYSSICSEHFTPDCFKRECNNKLLKENAVPTIFLCTEPHDKKEDLLEPQEQLPPPPLPPPVSQVDAAIGLLMPPLQTPVNLSVFCDHNYTVEDTMHQRKRIHQLEQPVEKLRKKLKTAQQRCRRQERQLEKLKEVVHFQKEKDDVSERGYVILPNDYFEIVEVPA [Q155P], 0.175.
Turning to MVQSCSAYGCKNRYDKDKPVSFHKFPLTRPSLCKEWEAAVRRKNFKPTKYSSICSEHVTPDCFKRECNNKLLKENAVPTIFLCTEPHDKKEDLLEPQEQLPPPPLPPPVSQVDAAIGLLMPPLQTPVNLSVFCDHNYTVEDTMHQRKRIHQLEQQVEKLRKKLKTAQQRCRRQERQLEKLKEVVHFQKEKDDVSERGYVILPNDYFEIVEVPA [F58V], the THAP1 transcriptional activity turned out to be 0.115.
The same measure for MVQSCSAYGCKNRYDKDKPVSFHKFPLTRPSLCKEWEAAVRRKNFKPTKYSSICSEHFTPDCFKRECNNKLLKENAVPTIFLCTEPHDKKEDLLEPQEQLPPPPLPPPVSQVDAAIGLLMPPLQTPVNLSVFCDHNYTVEDTMHQRKRIHQLEQQVEKLRKKLKTAQQRCRRQERQLEKLKEVVHFQKEKDDVSERGYVILPNDYFEISEVPA [V209S]: 0.634.
As to MVQSCSAYGCKNRYDKDKPVSFHKFPLTRPSLCKEWEAAVRRKNFKPTKYSSICSEHFTPDCFKRECNNKLLKENAVPTIFLCTEPHDKKEDLLEPQEQLPPPPLPPPVSQVDAAIGLLLPPLQTPVNLSVFCDHNYTVEDTMHQRKRIHQLEQQVEKLRKKLKTAQQRCRRQERQLEKLKEVVHFQKEKDDVSERGYVILPNDYFEIVEVPA [M120L], the THAP1 transcriptional activity was determined as 0.534.
The same measure for MVQSCSAYGCKNRYDKDKPVSFHKFPLTRPSLCKEWEAAVRRKNFKPTKYSSICSEHFTPDCFKRECNNKLLKENAVPTIFLCTEPHDKKEDLLEPQEQLPPPPLPPPVSQVDAAIGLLMPPLQTPVNLSAFCDHNYTVEDTMHQRKRIHQLEQQVEKLRKKLKTAQQRCRRQERQLEKLKEVVHFQKEKDDVSERGYVILPNDYFEIVEVPA [V131A]: 0.451; for MVQSCSAYGCKNRYDKDKPVSFHKFPLTRPSLCKEWEAAVRRKNFKPTKYSSICSEHFTPDCFKREANNKLLKENAVPTIFLCTEPHDKKEDLLEPQEQLPPPPLPPPVSQVDAAIGLLMPPLQTPVNLSVFCDHNYTVEDTMHQRKRIHQLEQQVEKLRKKLKTAQQRCRRQERQLEKLKEVVHFQKEKDDVSERGYVILPNDYFEIVEVPA [C67A]: 0.639.
The same measure for MVQSCSAYGCKNRYDKDKPVSFHKFPLTRPSLCKEWEAAVRRKNFKPTKYSSICSEHFTPDCFKRECNNKLLKENAVPTIFLCTEPHDKKEDLLEPQEQLPPPPLPPPVSCVDAAIGLLMPPLQTPVNLSVFCDHNYTVEDTMHQRKRIHQLEQQVEKLRKKLKTAQQRCRRQERQLEKLKEVVHFQKEKDDVSERGYVILPNDYFEIVEVPA [Q111C]: 0.52; for MVQSCSAYGCKNRYDKDKPVSFHKFPLTRPSLCKEWEAAVRRKNFKPTKYSSICSEHFTPDCFKRECNNKLLKENAVPTIFLCTEPHDKKEDLLEPQEQLPPPPLPPPVSQVDAAIGLLMPPLQTPVNLSVFCDHNYTVEDTMHQRKRIHQLEQQVEKLRKKLKTAQQRCRRQERQLEKLKEVVHFQKEKDEVSERGYVILPNDYFEIVEVPA [D192E]: 0.835; for MVQSCSAYGCKNRYDKDKPVSFHKFPLTRPSLCKEWEAAVRRKNFKPTKYSSICSEHFTPDCFKRECNNKLLKENAVPTIFLCTEPHDKKEDLLEPQEQLPPPPLPPPVSQVDAAIGLLMPPLQTPVNLSVFCDHNYTREDTMHQRKRIHQLEQQVEKLRKKLKTAQQRCRRQERQLEKLKEVVHFQKEKDDVSERGYVILPNDYFEIVEVPA [V139R]: 0.938.
On to MVQSCSAYGCKNRYDKDKPVSFHDFPLTRPSLCKEWEAAVRRKNFKPTKYSSICSEHFTPDCFKRECNNKLLKENAVPTIFLCTEPHDKKEDLLEPQEQLPPPPLPPPVSQVDAAIGLLMPPLQTPVNLSVFCDHNYTVEDTMHQRKRIHQLEQQVEKLRKKLKTAQQRCRRQERQLEKLKEVVHFQKEKDDVSERGYVILPNDYFEIVEVPA [K24D], for which the THAP1 transcriptional activity came to 0.116.
To MVQSCSAYGCKNRYDKDKPVSFHKFPLTRPSLCKEWEAAVRRKNFKPTKYSSICSEHFTPDCFKRECNNKLLKENAVPTIFLCTEPHDKKEDLLEPQEQLPPPPLPPPVSQVDAAIGLLMPPLQTPVNLSVFCDHNYTVEDTMHQRKRIHQLEQQVEKLRKKLKTWQQRCRRQERQLEKLKEVVHFQKEKDDVSERGYVILPNDYFEIVEVPA [A166W] belongs 0.485; to MVQSCNAYGCKNRYDKDKPVSFHKFPLTRPSLCKEWEAAVRRKNFKPTKYSSICSEHFTPDCFKRECNNKLLKENAVPTIFLCTEPHDKKEDLLEPQEQLPPPPLPPPVSQVDAAIGLLMPPLQTPVNLSVFCDHNYTVEDTMHQRKRIHQLEQQVEKLRKKLKTAQQRCRRQERQLEKLKEVVHFQKEKDDVSERGYVILPNDYFEIVEVPA [S6N], 0.174; to MVQSCSAYGCKNRYDKDKPVSFHKFPLTRPSLCKEWEAAVRRKNFKPTKYSSICSEHFTPDCFKRECNNKLLKENAVPTIFLCTEPHDKKEDLLEPQEQLPPPPLPPPVSQVDAAIGLLMPPLQTPVNLSVFCDHNYTVEDTMHQRKRIHQLEQQVEKLRKKLKTAQQRCRRQERQLEKLKEVVHFQKEKDDVSERGYVILPNDYKEIVEVPA [F206K], 1.08.
As for MVQSCSAYGCKNRYDKDKPVSFHKFPLTRPSLCKEWEAAVRRKNFKPTKYSSICSEHFTPDCFKRECNNKLLKENAVPTIFLCTEPHDKKEDLLEPQEQLPPPPLPPPVSQVDAAIGLLMPPLQTPVNLSVFCDHNYTVEDTMHQRKRIHQLEQQVEKLRKKLKSAQQRCRRQERQLEKLKEVVHFQKEKDDVSERGYVILPNDYFEIVEVPA [T165S], the THAP1 transcriptional activity came to 1.6.
Take MVQSCSAYGCKNRYDKDKPVSFHKFPLTRPSLCKEWEAAVRRKNFKPTKYSSICSEHFTPDCFKRECNNKLLKENAVPTDFLCTEPHDKKEDLLEPQEQLPPPPLPPPVSQVDAAIGLLMPPLQTPVNLSVFCDHNYTVEDTMHQRKRIHQLEQQVEKLRKKLKTAQQRCRRQERQLEKLKEVVHFQKEKDDVSERGYVILPNDYFEIVEVPA [I80D]: the THAP1 transcriptional activity came out at 0.29.
Consider MVQSCSAYGCKNRYDKDKPVSFHKFPLTRPSLCKEWEAAVRRKNFKPTKYSSICSEHFTPDCFKRECNNKLLKENAVPTIFLCTEPHDKKEDLLEPQEQLPPPPLPPPVSQVDAAIGLLMPPLQTPVNLSVFCDHNYTVEDTMHQRKRIHQLEQQVEKLRKKLKTAQRRCRRQERQLEKLKEVVHFQKEKDDVSERGYVILPNDYFEIVEVPA [Q168R], for which the THAP1 transcriptional activity stood at 0.446.
To MVQSCSAYGCKNRYDKDFPVSFHKFPLTRPSLCKEWEAAVRRKNFKPTKYSSICSEHFTPDCFKRECNNKLLKENAVPTIFLCTEPHDKKEDLLEPQEQLPPPPLPPPVSQVDAAIGLLMPPLQTPVNLSVFCDHNYTVEDTMHQRKRIHQLEQQVEKLRKKLKTAQQRCRRQERQLEKLKEVVHFQKEKDDVSERGYVILPNDYFEIVEVPA [K18F] belongs 0.11; to MVQSCSAYGCKNRYDKDKPVSFHKFPLTRPSLCKEWEAAVRRKNFKPTKYSSICSEHFTPDCFKRECNNKLLKENAVPTIFLCTEPHDKKEDLLEPQEQLPPPPLPPPVSQVDAAIGLLMPPLQTPVNLSVFCDHNYTVEKTMHQRKRIHQLEQQVEKLRKKLKTAQQRCRRQERQLEKLKEVVHFQKEKDDVSERGYVILPNDYFEIVEVPA [D141K], 0.927.
The same measure for MVQSCSAYGCKNRYDKDKPVSFHKFPLTRPSLCKEWEAAVRRKNFKPTKYSSICSEHFTPDCFKRECNNKLLKENAVPTIFLCTEPHDKKEDLLEPQEQLPPPPLPPPVSQVDAAIGLLMPPLQTPVNLSVFCDHNYTVEDTMHQRKRIHQLEQQVEKLRKKLKTAQQRCRRQERQQEKLKEVVHFQKEKDDVSERGYVILPNDYFEIVEVPA [L177Q]: 0.191.
On to MVQSCSAYGCKNRYDKDKPVSFHKFPLTRPSLCKEWEAAVRRKNFKPTKYSSICSEHFTPDCFKRECNNKLLKENAVPTIFLCTEPHDKKEDLLEPQEQLPPPPLPPPVSQVDAAIGLLMPPLQTPVNLSVFCDHNYTVEDTMHQRKRIHQLEQQVEKLRKKLKTAQQRCLRQERQLEKLKEVVHFQKEKDDVSERGYVILPNDYFEIVEVPA [R171L], for which the THAP1 transcriptional activity is 0.314.
The same measure for MVQSCSAYGCKNRYDKDKPVSFHKFPLTRPSLCKEWEAAVRRKNFKPTKYSSICSEHFTPDCFKRECNNKLLKENAVPTIFLCTEPHDKKEDLLEPQEQLPPPPLPPPVSQVDAAIGLLMPPLQTPVNLSVFCDHNYTVEDTMHQRKRIHQLEQQVEKLRKKLKTAQQRCRRQERQLEKLKEVVHFQKEKDDVSERGYVILPNDYFEIVEVPL [A213L]: 0.907; for MVQSCSAYGCKNRYDKDKPVSFHKFPLTRPSLCKEWEAAVRRKNFKPTKYSSICSEHFTPDCFKRECNNKLLKENAVPTIFLCTEPHDKKEDLLEPQEQLPPPPLPPPVSQVDAAIGLLMPPLQTPVNLSVFCDHNYTVEDTMHQRKRIHQDEQQVEKLRKKLKTAQQRCRRQERQLEKLKEVVHFQKEKDDVSERGYVILPNDYFEIVEVPA [L152D]: 0.195.
As for MVQSCSAYGCKNRYDKDKPVSFHKFPLTRPSLCKEWEAAVRRKNFKPTKYSSICSEHFTPDCFKRECNNKLLKENAVPTIFLCTEPHDKKEDLLEPQEQLPPPPLPPPVSQVDAAIGLLMPPLQTPVNLSVFCDHNYTVEDTMHQRKRIHQLEQQVEKLRKKLKTAQQRCRRQERQLEYLKEVVHFQKEKDDVSERGYVILPNDYFEIVEVPA [K179Y], the THAP1 transcriptional activity stood at 0.661.
